Measured values: the supplement of paper PMC10126150
± gives the standard deviation of the averaged measurements.

System: ATP
Experiment: switch fluorescence ratio, 500 uM ATP over buffer (Cy3 cluster intensity, sum of 5 cycles each) (fold (ratio)); higher = stronger signal-on switching upon ATP binding; sequences stand for … in TCGTCGGCAGCGTCAGATGTGTATAAGAGACAGTTTTTTTTTTTTTTTTTTTTTTTTT…TC
Details: aptamer strand: ATP DNA aptamer (quencher-CACCTGGGGGAGTATTGCGGAGGAAGG + anchor), 100 nM annealed; ATP concentration: 500 uM
Method in brief: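 Cy3-labelled switching-strand clusters on a modified Illumina MiSeq flow-cell were annealed to 100 nM quencher-labelled ATP aptamer, imaged in selection buffer, then imaged after 15 min with 500 uM ATP at 22 °C. Five buffer/ATP cycles ran, with NaOH stripping and re-annealing between them. The fluorescence ratio is summed target-cycle over summed buffer-cycle Cy3 intensity per cluster, averaged per switch-domain sequence. Clusters outside 100-1000 RFU were excluded.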
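Further: ATP exposure 15 min at 22 °C before imaging.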

| Sequence | switch fluorescence ratio |
| --- | --- |
| ATGATCCCGC | 1.2 ± 0.019 |
| ATAATCACCT | 1.23 ± 0.019 |
| GGCCGAGGAG | 0.998 ± 0.012 |
| GGAAAGAGTT | 1.07 ± 0.056 |
| GTGGAAGCCG | 1.013 ± 0.0034 |
| GAGTTGAGGA | 0.98 ± 0.014 |
| TTTGTAGAAC | 1.02 ± 0.036 |
| GATAGTAGC | 0.978 ± 0.024 |
| GATTAAAAAG | 0.99 ± 0.062 |
| AGTAGGGGGT | 1.01 ± 0.022 |
| AGCCAGATTC | 0.975 ± 0.036 |
| GGGGGGCCTT | 1 ± 0.04 |
| TGGGTTGGTG | 1.03 ± 0.032 |
| CGGAGGTAAG | 0.994 ± 0.011 |
| GGTGATGGGA | 0.976 ± 0.021 |
| TTAGGGTGCC | 1.02 ± 0.034 |
| CAGCATCCTT | 1.02 ± 0.043 |
| CTGGTATTAT | 1.017 ± 0.0046 |
| ATGATTGCGA | 1.01 ± 0.061 |
| GCTACTGTTA | 1.077 ± 0.0025 |
| TGAGTATTTT | 0.992 ± 0.025 |
| TTGCGGTCGT | 1.002 ± 0.0023 |
| TGGCCCGGGA | 0.9878 ± 0.0035 |

| Sequence | switch fluorescence ratio |
| --- | --- |
| GCTTTTGGGT | 1 ± 0.025 |
| TTCCAAGATC | 1.18 ± 0.12 |
| GATGTTATTA | 0.979 ± 0.038 |
| TATATTTG | 0.9883 ± 0.0065 |
| AATAGGGGGG | 1.01 ± 0.024 |
| TGTAACCCAT | 1.02 ± 0.061 |
| TCTAGAAGCG | 1.0039 ± 0.00082 |
| TGCTGTAATA | 1.035 ± 0.0031 |
| GGCCGAGTTA | 1.013 ± 0.0036 |
| ATAGACAGAC | 1.136 ± 0.0095 |
| ATGTAATGGT | 1.01 ± 0.03 |
| CCGGAGAGGG | 1.7 ± 0.61 |
| TGTCGTTATT | 0.9546 ± 0.0018 |
| TTTTTTCTTC | 1.04 ± 0.011 |
| CTGTAAGGCC | 0.981 ± 0.015 |
| GCAGGAAATG | 0.992 ± 0.011 |
| ATTAACTTTA | 1.01 ± 0.035 |
| ATGATTGGA | 0.992 ± 0.015 |
| GCCATATGTG | 1.02 ± 0.015 |
| TGTCCCTCTT | 1.02 ± 0.053 |
| CGGATGTAGC | 1.02 ± 0.063 |
| GATTAAATAT | 1.02 ± 0.012 |
| TGTGGGATAC | 1.2 ± 0.015 |

| Sequence | switch fluorescence ratio |
| --- | --- |
| AATTGATGTT | 0.972 ± 0.025 |
| TACAAGCCTA | 1.011 ± 0.0014 |
| GTGACAATTT | 0.998 ± 0.069 |
| GTTTTTAGAA | 0.994 ± 0.031 |
| GCAAAAGTTT | 0.99 ± 0.012 |
| ACGGAGGTGG | 0.992 ± 0.033 |
| GTGTAGAGGG | 1 ± 0.048 |
| GCGGGGACGG | 1.07 ± 0.034 |
| CCTTATAGTT | 0.995 ± 0.023 |
| CTTGGGACTT | 1 ± 0.05 |
| TTTATTGCGG | 1.01 ± 0.043 |
| ATGTAATTAA | 0.964 ± 0.046 |
| GGAGTACGGG | 0.999 ± 0.032 |
| TTTCTTATTC | 0.983 ± 0.022 |
| GGCATGTTAG | 0.9847 ± 0.009 |
| CGGAGAAGGA | 0.98471 ± 0.00067 |
| TTAGTATATT | 1.03 ± 0.0093 |
| GCTATGGTGG | 0.987 ± 0.021 |
| AAGAAATTAC | 1.06 ± 0.028 |
| ATTGATTTAG | 0.9756 ± 0.0095 |
| AAAAACAGGT | 1.02 ± 0.013 |
| ATGGACTCCT | 1.04 ± 0.044 |
| CTTGTTGCCG | 1.01 ± 0.013 |

| Sequence | switch fluorescence ratio |
| --- | --- |
| TGCATGTAGG | 1.01 ± 0.034 |
| CGGGGGGGA | 1.0242 ± 0.00033 |
| CCTTCCGTTC | 2.66 ± 0.53 |
| CTAGGTGTG | 1.01 ± 0.082 |
| CAGCATGTTT | 0.988 ± 0.024 |
| AACGAGTGTC | 1.09 ± 0.11 |
| TCGGACATGG | 1.015 ± 0.0082 |
| CTCGGGCAGG | 1.01 ± 0.032 |
| CGTTGTTCGA | 1.02 ± 0.012 |
| CTCAGGCG | 1.17 ± 0.23 |
| TATTGGGGA | 0.958 ± 0.011 |
| TTGAGTAACT | 0.967 ± 0.024 |
| ATGGGGCCTG | 0.9828 ± 0.0078 |
| CGGAAGTCTT | 0.992 ± 0.024 |
| CCCGGGGGGT | 1.56 ± 1 |
| GAACCTTGAC | 1.61 ± 0.14 |
| TTTTTCGACG | 1.1 ± 0.21 |
| TCTCGTCAGC | 1.087 ± 0.0041 |
| TGCTTAAAGT | 0.9807 ± 0.0054 |
| GGGAGTGTTT | 1 ± 0.026 |
| CTGATGTAGC | 1.21 ± 0.049 |
| AACCTTGTCC | 1.61 ± 0.11 |
| AGACGGAAAG | 0.982 ± 0.015 |

| Sequence | switch fluorescence ratio |
| --- | --- |
| ATTAGTGGGT | 0.9826 ± 0.005 |
| TGTTATGGGT | 1.04 ± 0.039 |
| TTTACCCTAT | 1.06 ± 0.015 |
| ACCTTTTTTT | 1.17 ± 0.11 |
| CCGGGCAAGA | 5.5 ± 1.4 |
| CATGTTTGCT | 0.961 ± 0.02 |
| GGGTGTTTGC | 1.02 ± 0.035 |
| GCTTGCGGGA | 1.03 ± 0.019 |
| CATCATCTTG | 1 ± 0.062 |
| TAGTGGGGGA | 0.995 ± 0.015 |
| ACTTAACCGG | 1.05 ± 0.016 |
| TGGTACAGGG | 1.03 ± 0.018 |
| CGGGTCCATT | 0.981 ± 0.0079 |
| TGAGACTTAC | 1.15 ± 0.06 |
| CGATGTAGGT | 1.02 ± 0.025 |
| TGACTACGCG | 1.18 ± 0.02 |
| ACTGGCAGC | 1.05 ± 0.017 |
| ATTGTTTACA | 0.969 ± 0.051 |
| AGGGAGAAGA | 1.005 ± 0.0077 |
| TTTCAGGGTT | 1.03 ± 0.072 |
| TGGGGGCATA | 1.09 ± 0.1 |
| TTATCCTTCA | 1.27 ± 0.36 |
| CGGATCTGAA | 1.01 ± 0.016 |

| Sequence | switch fluorescence ratio |
| --- | --- |
| GGTATTTTGC | 0.979 ± 0.048 |
| TATTTGTACG | 1.018 ± 0.0046 |
| TCAGAAGCGG | 1.3 ± 0.1 |
| TAGGGGAGGT | 1.01 ± 0.016 |
| CAGTGTGGTC | 0.979 ± 0.055 |
| AAACTGAATC | 1 ± 0.094 |
| TCCGGGCCCA | 1.038 ± 0.0023 |
| TCGACCATCG | 0.974 ± 0.033 |
| GATCGCTCGG | 1.01 ± 0.02 |
| TAGCCATGTC | 0.924 ± 0.053 |
| GAACGGGGGG | 0.9624 ± 0.0053 |
| GCGGTTGCCA | 0.982 ± 0.033 |
| TGAGCCCTTT | 1.018 ± 0.0046 |
| AAATTGCGAG | 1.005 ± 0.0033 |
| GCTGGGTTGG | 1 ± 0.026 |
| TTCGCTCTTT | 1.06 ± 0.025 |
| CAGTAATATT | 1.06 ± 0.017 |
| TATTCACGGG | 1.0859 ± 0.00034 |
| TTATTCTTGT | 1 ± 0.017 |
| GGAGTATGAG | 0.999 ± 0.021 |
| ACGGGCTAAC | 1.09 ± 0.14 |
| TGGTCTAATG | 0.9791 ± 0.002 |
| AGAGCGAGGA | 0.986 ± 0.027 |

| Sequence | switch fluorescence ratio |
| --- | --- |
| TATATGTCGT | 0.99 ± 0.01 |
| GGTAGGGATG | 0.962 ± 0.024 |
| GGGGGCGATT | 0.987 ± 0.017 |
| TTTTATTGCT | 0.991 ± 0.036 |
| TGCATTGCTA | 1.04 ± 0.015 |
| ATGAATAGAG | 1.02 ± 0.031 |
| TTTGCAGTTC | 1.3 ± 0.32 |
| TGAATTAGAA | 0.968 ± 0.018 |
| GTGGGGGCGT | 1 ± 0.026 |
| TAGGGATTTC | 0.997 ± 0.019 |
| TTGACCTGGG | 1.1 ± 0.098 |
| TATAAAGAGC | 1.08 ± 0.081 |
| ATGGATTGAT | 0.9621 ± 0.0051 |
| TCGGAGCTTG | 1.16 ± 0.064 |
| TTTTTATAT | 0.983 ± 0.031 |
| ATGCAGCAGT | 1.46 ± 0.051 |
| CTTAAATGTT | 1.014 ± 0.0078 |
| GAGGGGTGAG | 1.01 ± 0.041 |
| ATCTGCCTTG | 1 ± 0.019 |
